Measurements published in publication PMC10511717.

Target: RANKL of the osteoclast differentiation medium (UniProt O35235)
Sequence of UniProt O35235 (O35235 whole entry): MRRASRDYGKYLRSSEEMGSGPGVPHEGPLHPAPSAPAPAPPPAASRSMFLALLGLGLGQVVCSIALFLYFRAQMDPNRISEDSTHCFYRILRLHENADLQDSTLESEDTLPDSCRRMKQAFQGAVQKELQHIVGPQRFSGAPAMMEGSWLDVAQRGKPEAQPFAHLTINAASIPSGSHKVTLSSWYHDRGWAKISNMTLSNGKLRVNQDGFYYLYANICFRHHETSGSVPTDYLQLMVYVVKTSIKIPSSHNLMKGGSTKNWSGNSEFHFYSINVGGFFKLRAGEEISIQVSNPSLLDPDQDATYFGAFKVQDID

B1: recombinant mouse OMD (natural protein)
chain: QYEAYRWDDDYDQEPNEDYDPEFQFHQNIEYGVPFYNNILGCAKECFCPTNFPTSMYCDNRKLKTIPIIPMHIQQLNLQFNDIEAVTANSFINATHLKEINLSHNKIKSQKIDYGVFAKLSNLQQLHLEHNNLEEFPFPLPKSLERLLLGYNEISILPTNAMDGLVNVTMLDLCYNHLSDSMLKEKTLSKMEKLMQLNLCNNRLESMPLGLPSSLMYLSLENNSISSIPDNYFDKLPKLHALRISHNKLEDIPYDIFNLSNLIELNVGHNKLKQAFYIPRNLEHLYLQNNEIESINVTMICPSPDPVHHHHLTYLRVDQNKLKEPISSYIFFCFPRIHSIYYGEQRSTNGETIQLKTQVFRSYQEEEEEDDHDSQDNTLEGQEVSDEHYNSHYYEMQEWQDTI
B1 gave an osteoclast number (TRAP staining after 4 days) in primary murine osteoclast culture differentiated with M-CSF and RANKL; OMD at 10 and 40 ng/mL preincubated with RANKL and M-CSF (% reduction of osteoclast number) of 50.
